The supplement of paper PMC7877785
± gives the uncertainty stated by the source.

Experiment: self-splicing fitness, log relative to wild type (ln ratio); higher = more splicing; Tetrahymena group I intron in knt gene, E. coli kanamycin selection, DiMSum; sequences stand for … in CUCUCU…GGAGGGAAAAGUUAUCAGGCAUGCACCUGGUAGCUAGUCUUUAAACCAAUAGAUUGCAUCGGUUUAAAAGGCAAGACCGUCAAAUUGCGGGAAAGGGGUCAACAGCCGUUCAGUACCAAGUCUCAGGGGAAACUUUGAGAUGGCCUUGCAAAGGGUAUGGUAAUAAGCUGACGGACAUGGUCCUAACCACGCAGCCAAGUCCUAAGUCAACAGAUCUUCUGUUGAUAUGGAUGCAGUUCACAGACUAAAUGUCGGUCGGGGAAGAUGUAUUCUUCUCAUAAGAUAUAGUCGGACCUCUCCUUAAUGGGAGCUAGCGGAUGAAGUGAUGCAACACUGGAGCCGCUGGGAACUAAUUUGUAUGCGAAAGUAUAUUGAUUAGUUUUGGAGUACUCGUGGUCG
In short: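 Library with all eight P1ex-region intron nucleotides randomised, intron inside the knt kanamycin-resistance gene on pET-22b(+), in E. coli BL21(DE3). Cells grew overnight at 37°C or 30°C on LB agar with or without 25 μg/mL kanamycin (plus 100 μg/mL carbenicillin, 50 μM IPTG, 0.2% rhamnose), in six replicate transformations. Pooled colonies were amplicon-sequenced on Illumina HiSeq 2500. DiMSum fitness is the error-weighted combination of wild-type-normalised replicate fold changes, kanamycin versus none.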

| Sequence | self-splicing fitness (ln) (30 °C) | self-splicing fitness (ln) (37 °C) |
| --- | --- | --- |
| CAAUAGCAAUAUUACGAGCU | -4.39 ± 0.42 | -3.5 ± 0.42 |
| CAAUAGCAAUAUUACGAUAA | -3.24 ± 0.48 | -3.1 ± 0.33 |
| CAAUAGCAAUAUUACGCAAA | -3.95 ± 0.3 | -2.6 ± 0.27 |
| CAAUAGCAAUAUUACGCAUU | -4.62 ± 0.24 | -2.71 ± 0.17 |
| CAAUAGCAAUAUUACGCGAC | -2.2 ± 0.17 | -2.54 ± 0.38 |
| CAAUAGCAAUAUUACGCUCC | – | -0.581 ± 0.39 |
| CAAUAGCAAUAUUACGCUUC | -4.65 ± 0.36 | -2.95 ± 0.35 |
| CAAUAGCAAUAUUACGGAUG | -1.51 ± 0.08 | -1.12 ± 0.088 |
| CAAUAGCAAUAUUACGGCAU | -3.03 ± 0.17 | -1.32 ± 0.26 |
| CAAUAGCAAUAUUACGGCGA | -3.93 ± 0.4 | -2.03 ± 0.24 |
| CAAUAGCAAUAUUACGGGAC | -2.83 ± 0.34 | -2.63 ± 0.27 |
| CAAUAGCAAUAUUACGGGUA | -3.9 ± 0.21 | -3.12 ± 0.18 |
| CAAUAGCAAUAUUACGGUCG | -0.0402 ± 0.066 | 0.0285 ± 0.087 |
| CAAUAGCAAUAUUACGGUCU | -3.24 ± 0.31 | -3.15 ± 0.35 |
| CAAUAGCAAUAUUACGGUGU | -3.14 ± 0.16 | -2.27 ± 0.18 |
| CAAUAGCAAUAUUACGUAGA | -3.48 ± 0.16 | -2.37 ± 0.17 |
| CAAUAGCAAUAUUACGUAGU | -3.31 ± 0.29 | -2.44 ± 0.22 |
| CAAUAGCAAUAUUACGUGAA | -4.02 ± 0.37 | -1.7 ± 0.22 |
| CAAUAGCAAUAUUACGUGCU | – | -2.65 ± 0.24 |
| CAAUAGCAAUAUUACGUUAC | – | -3.23 ± 0.39 |
| CAAUAGCAAUAUUACGUUGG | -1.9 ± 0.099 | -1.3 ± 0.11 |
| CACAAGCAAUAUUACGAAGG | -1.45 ± 0.096 | -0.993 ± 0.12 |

| Sequence | self-splicing fitness (ln) (30 °C) | self-splicing fitness (ln) (37 °C) |
| --- | --- | --- |
| CACAAGCAAUAUUACGAAUG | -1.79 ± 0.074 | -1.2 ± 0.073 |
| CACAAGCAAUAUUACGACCU | -1.71 ± 0.19 | -2.1 ± 0.2 |
| CACAAGCAAUAUUACGCCCA | -0.966 ± 0.091 | 0.114 ± 0.09 |
| CACAAGCAAUAUUACGCGUA | -1.64 ± 0.072 | -0.625 ± 0.067 |
| CACAAGCAAUAUUACGGAAG | -0.736 ± 0.055 | -0.887 ± 0.072 |
| CACAAGCAAUAUUACGGGCA | -3.05 ± 0.14 | -1.39 ± 0.099 |
| CACAAGCAAUAUUACGGUCC | -2.99 ± 0.32 | -1.99 ± 0.27 |
| CACAAGCAAUAUUACGUAAC | -2.43 ± 0.095 | -0.662 ± 0.14 |
| CACAAGCAAUAUUACGUACC | -3.9 ± 0.21 | -1.36 ± 0.14 |
| CACAAGCAAUAUUACGUCGG | -0.785 ± 0.05 | -0.422 ± 0.063 |
| CACAAGCAAUAUUACGUUCU | -2.84 ± 0.12 | -2.42 ± 0.12 |
| CACAAGCAAUAUUACGUUGU | -3.81 ± 0.16 | -2.39 ± 0.13 |
| CACCAGCAAUAUUACGAAAG | -0.231 ± 0.041 | -0.141 ± 0.064 |
| CACCAGCAAUAUUACGAAAU | -4.11 ± 0.18 | -2.29 ± 0.16 |
| CACCAGCAAUAUUACGAACU | -3.98 ± 0.2 | -2.05 ± 0.17 |
| CACCAGCAAUAUUACGAGCA | -3.54 ± 0.16 | -1.55 ± 0.13 |
| CACCAGCAAUAUUACGAUCA | -2.75 ± 0.15 | -1.43 ± 0.16 |
| CACCAGCAAUAUUACGAUCG | -0.326 ± 0.059 | 0.608 ± 0.085 |
| CACCAGCAAUAUUACGCAUA | -2.57 ± 0.12 | -1.27 ± 0.1 |
| CACCAGCAAUAUUACGCCAU | -3.39 ± 0.31 | -2.03 ± 0.29 |
| CACCAGCAAUAUUACGCCGC | -3.35 ± 0.2 | -2.43 ± 0.29 |
